For series [1], the system named is T1, O=C[C@H](O)[C@@H](O)[C@H](O)CO.
T1 construct: made in house; host or cells: E. coli K514
Nature of the series: purified protein, by the assay type. The class given is biochemical, Actinoplanes missouriensis. To be noted: other: xylose, 35° C., 10 mM Mg2+, pH 7.5. The procedure:
Alternatively, the D-fructose produced during the isomerization reaction can be determined enzymatically using sorbitol dehydrogenase and NADH.
As a measure of specificity the quotient is Vmax /Km is sometimes used (Wells et al., ibid). […] These temperatures are chosen for practical reasons.
Activities were measured on purified enzyme. The coupled sorbitol dehydrogenase assay was used for xylose, the cysteine-carbazole or discontinuous sorbitol dehydrogenase method was used for glucose.

Series [2] relates to O=C[C@H](O)[C@@H](O)[C@H](O)CO. Nature of the series: purified protein, by the assay type. To be noted: pH 7.5.

Chain of Actinoplanes missouriensis glucose isomerase, wild type, SEQ ID NO: 1 (Actinoplanes missouriensis 431) (chain, as listed by the source): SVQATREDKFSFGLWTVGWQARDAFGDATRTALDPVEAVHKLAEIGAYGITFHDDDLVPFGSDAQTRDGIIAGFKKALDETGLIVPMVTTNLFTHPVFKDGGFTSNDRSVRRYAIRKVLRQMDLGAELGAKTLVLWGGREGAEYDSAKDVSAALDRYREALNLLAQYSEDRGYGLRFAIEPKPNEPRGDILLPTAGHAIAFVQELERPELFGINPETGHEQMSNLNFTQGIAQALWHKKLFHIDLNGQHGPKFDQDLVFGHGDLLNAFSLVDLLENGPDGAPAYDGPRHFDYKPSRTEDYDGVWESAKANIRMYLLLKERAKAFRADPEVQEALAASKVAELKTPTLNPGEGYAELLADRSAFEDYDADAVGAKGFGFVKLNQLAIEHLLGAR
Chain of Actinoplanes missouriensis glucose isomerase variant M88SH290N (M88S/H290N) (Actinoplanes missouriensis 431; H290N/M88S) (chain, as listed by the source M88S H290N H290N M88S): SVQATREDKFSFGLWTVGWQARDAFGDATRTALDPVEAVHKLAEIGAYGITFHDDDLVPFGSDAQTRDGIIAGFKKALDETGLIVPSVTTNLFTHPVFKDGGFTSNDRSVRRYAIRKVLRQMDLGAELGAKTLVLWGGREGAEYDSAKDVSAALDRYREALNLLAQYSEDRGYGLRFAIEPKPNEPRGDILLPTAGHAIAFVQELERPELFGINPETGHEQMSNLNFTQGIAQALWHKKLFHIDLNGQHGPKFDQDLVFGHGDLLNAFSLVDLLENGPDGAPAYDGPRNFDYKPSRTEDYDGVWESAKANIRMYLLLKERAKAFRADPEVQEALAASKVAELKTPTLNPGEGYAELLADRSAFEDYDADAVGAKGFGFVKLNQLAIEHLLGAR
Chain of Actinoplanes missouriensis glucose isomerase variant A25K (Actinoplanes missouriensis 431; A25K) (chain, as listed by the source A25K A25K): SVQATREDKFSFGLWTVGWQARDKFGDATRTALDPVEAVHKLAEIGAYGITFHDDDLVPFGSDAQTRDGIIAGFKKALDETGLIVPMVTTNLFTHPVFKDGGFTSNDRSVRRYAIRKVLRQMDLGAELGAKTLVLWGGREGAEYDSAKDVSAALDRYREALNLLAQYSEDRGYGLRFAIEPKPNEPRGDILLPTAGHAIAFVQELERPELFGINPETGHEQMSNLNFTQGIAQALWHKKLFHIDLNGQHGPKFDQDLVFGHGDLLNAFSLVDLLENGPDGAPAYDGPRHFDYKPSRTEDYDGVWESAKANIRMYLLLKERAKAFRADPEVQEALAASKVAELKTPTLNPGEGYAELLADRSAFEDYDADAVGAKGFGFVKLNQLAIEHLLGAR
Chain of Actinoplanes missouriensis glucose isomerase variant T90S (Actinoplanes missouriensis 431; T90S) (chain, as listed by the source T90S T90S): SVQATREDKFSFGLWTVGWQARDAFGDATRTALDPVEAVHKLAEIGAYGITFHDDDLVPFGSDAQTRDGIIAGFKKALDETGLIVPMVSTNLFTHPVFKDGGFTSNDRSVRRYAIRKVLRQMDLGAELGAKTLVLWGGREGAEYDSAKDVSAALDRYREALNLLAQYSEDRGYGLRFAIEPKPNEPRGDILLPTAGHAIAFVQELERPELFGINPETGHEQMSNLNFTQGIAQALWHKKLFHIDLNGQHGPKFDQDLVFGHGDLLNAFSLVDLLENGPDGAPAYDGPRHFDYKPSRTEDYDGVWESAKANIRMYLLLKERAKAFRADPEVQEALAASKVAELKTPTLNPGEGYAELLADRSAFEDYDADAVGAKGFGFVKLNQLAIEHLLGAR
Chain of Actinoplanes missouriensis glucose isomerase variant M88S (Actinoplanes missouriensis 431; M88S) (chain, as listed by the source M88S M88S): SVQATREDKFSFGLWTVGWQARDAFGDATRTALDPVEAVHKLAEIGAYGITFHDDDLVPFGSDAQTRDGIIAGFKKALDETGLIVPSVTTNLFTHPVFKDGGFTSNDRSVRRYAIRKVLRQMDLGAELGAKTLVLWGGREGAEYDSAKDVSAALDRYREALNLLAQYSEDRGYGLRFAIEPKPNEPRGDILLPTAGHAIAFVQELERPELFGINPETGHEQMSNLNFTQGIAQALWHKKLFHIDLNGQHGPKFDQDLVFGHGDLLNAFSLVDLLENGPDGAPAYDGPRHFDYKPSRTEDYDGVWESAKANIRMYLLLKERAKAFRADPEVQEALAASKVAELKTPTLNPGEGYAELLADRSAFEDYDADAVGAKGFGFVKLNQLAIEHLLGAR
Chain of Actinoplanes missouriensis glucose isomerase variant V135Q (Actinoplanes missouriensis 431; V135Q) (chain, as listed by the source V135Q V135Q): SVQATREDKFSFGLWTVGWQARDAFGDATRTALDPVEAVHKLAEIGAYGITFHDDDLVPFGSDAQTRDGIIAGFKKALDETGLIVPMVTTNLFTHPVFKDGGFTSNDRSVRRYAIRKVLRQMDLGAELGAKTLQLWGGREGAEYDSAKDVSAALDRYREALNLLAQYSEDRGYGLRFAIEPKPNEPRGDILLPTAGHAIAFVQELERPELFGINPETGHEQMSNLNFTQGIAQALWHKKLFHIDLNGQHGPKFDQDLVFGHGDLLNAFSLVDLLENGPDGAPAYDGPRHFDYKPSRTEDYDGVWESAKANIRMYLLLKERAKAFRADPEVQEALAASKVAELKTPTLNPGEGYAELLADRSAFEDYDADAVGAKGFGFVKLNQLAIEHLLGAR
Chain of Actinoplanes missouriensis glucose isomerase variant M88SH243N (M88S/H243N) (Actinoplanes missouriensis 431; H243N/M88S) (chain, as listed by the source M88S H243N H243N M88S): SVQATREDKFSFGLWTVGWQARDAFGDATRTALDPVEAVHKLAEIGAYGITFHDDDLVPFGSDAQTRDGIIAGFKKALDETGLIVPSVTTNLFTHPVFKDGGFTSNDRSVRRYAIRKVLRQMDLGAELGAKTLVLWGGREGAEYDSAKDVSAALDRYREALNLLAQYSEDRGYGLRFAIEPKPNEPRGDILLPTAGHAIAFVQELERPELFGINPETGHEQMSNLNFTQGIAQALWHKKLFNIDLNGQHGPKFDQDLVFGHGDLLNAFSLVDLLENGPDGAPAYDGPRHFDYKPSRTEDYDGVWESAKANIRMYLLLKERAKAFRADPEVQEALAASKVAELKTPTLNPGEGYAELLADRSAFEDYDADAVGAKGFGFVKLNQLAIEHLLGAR
Chain of Actinoplanes missouriensis glucose isomerase variant H290N (Actinoplanes missouriensis 431; H290N) (chain, as listed by the source H290N H290N): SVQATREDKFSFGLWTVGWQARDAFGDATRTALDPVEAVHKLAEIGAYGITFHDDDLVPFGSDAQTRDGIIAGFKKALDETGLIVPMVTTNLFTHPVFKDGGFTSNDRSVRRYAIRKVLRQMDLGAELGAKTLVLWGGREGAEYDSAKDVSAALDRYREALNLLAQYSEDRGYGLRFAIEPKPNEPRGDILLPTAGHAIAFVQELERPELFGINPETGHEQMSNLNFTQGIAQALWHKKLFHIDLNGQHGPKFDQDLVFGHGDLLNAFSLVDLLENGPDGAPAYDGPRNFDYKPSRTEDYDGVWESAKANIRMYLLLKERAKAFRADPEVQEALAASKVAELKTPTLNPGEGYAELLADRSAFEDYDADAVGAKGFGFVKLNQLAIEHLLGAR

On to “Actinoplanes missouriensis glucose isomerase variant A25K (Actinoplanes missouriensis 431; A25K)”, for which the Km in series [1] was 2.73 mM.
For the substance “Actinoplanes missouriensis glucose isomerase variant H290N (Actinoplanes missouriensis 431; H290N)”, the Michaelis-Menten constant (Km) in series [1] was determined as 9.7 mM.
The same measure, in the same setting: with “Actinoplanes missouriensis glucose isomerase variant M88S (Actinoplanes missouriensis 431; M88S)” the figure was 7.6 mM; with “Actinoplanes missouriensis glucose isomerase variant M88SH243N (M88S/H243N) (Actinoplanes missouriensis 431; H243N/M88S)”, 11.9 mM; with “Actinoplanes missouriensis glucose isomerase variant M88SH290N (M88S/H290N) (Actinoplanes missouriensis 431; H290N/M88S)”, 14.8 mM.
With “Actinoplanes missouriensis glucose isomerase variant T90S (Actinoplanes missouriensis 431; T90S)”, in series [1], the Km amounted to 16.8 mM.
The same measure, in the same setting: with “Actinoplanes missouriensis glucose isomerase variant V135Q (Actinoplanes missouriensis 431; V135Q)” the figure was 56 mM.
Regarding “Actinoplanes missouriensis glucose isomerase, wild type, SEQ ID NO: 1 (Actinoplanes missouriensis 431)”, in series [2] (other: 35° C., 1 mM Mn), the Km is 13.2 mM and the maximum rate (Vmax) stood at 8.6 µmol/min/mg. Moreover, the Km in series [2] (other: xylose, 35° C., 10 mM Mg2+) came to 4.8 mM.

Usually Km stands for the substrate concentration at which the rate is half of its maximum. As usually defined, the Vmax is the top rate of the reaction or transport when substrate is in excess.
